In US20130263324, “METHODS FOR PRODUCING A COMPLEX TRANSGENIC TRAIT LOCUS” (E.I. du Pont de Nemours and Company, published 2013):

Assays:
[1] = tested on: MHP77-3 meganuclease (engineered I-CreI); assay: cell_activity; settings: maize embryos
[2] = biological target: T1, MHP77 meganuclease (engineered I-CreI); assay: cell_activity; maize embryos; settings: tags: SV40 NLS
T1 chain: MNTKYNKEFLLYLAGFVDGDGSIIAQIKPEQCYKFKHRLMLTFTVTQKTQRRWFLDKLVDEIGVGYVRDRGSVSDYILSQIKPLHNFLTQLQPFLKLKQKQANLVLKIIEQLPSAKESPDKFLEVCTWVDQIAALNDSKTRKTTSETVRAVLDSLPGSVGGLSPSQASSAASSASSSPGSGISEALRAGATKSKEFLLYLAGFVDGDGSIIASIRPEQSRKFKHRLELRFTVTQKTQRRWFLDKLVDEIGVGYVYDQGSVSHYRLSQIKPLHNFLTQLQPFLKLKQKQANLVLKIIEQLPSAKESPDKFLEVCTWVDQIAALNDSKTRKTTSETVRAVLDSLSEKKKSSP
Procedure: (§1) Trait gene cassettes can be introduced at other target sites of the complex trait locus through homologous recombination mediated by engineered meganucleases. Engineered meganucleases were designed to direct double strand breaks a two other MHP target sites, MHP55 (SEQ ID NO: 72) and MHP77 (SEQ ID NO: 74) within the complex trait locus. Target site modification was determined using qPCR. The probe sequence for qPCR screening of the MHP55 target site was […] (SEQ ID NO: 115), the MHPTS55_Forward_MGBprimer sequence was […] (SEQ ID NO: 116), and MHP55_reverse_MGB primer was […] (SEQ ID NO: 117). The probe sequence for qPCR of MHP77 target site was […] (SEQ ID NO: 118), the MHPTS77_Forward_MGB primer sequence was […] (SEQ ID NO: 119), and MHP77_reverse_MGB primer was […] (SEQ ID NO: 120). The trait gene cassettes encoding MHP14, MHP55 and MHP77 were introduced into maize somatic embryos via transformation techniques using bombardment and following bombardment, embryos were incubated on 560P (maintenance medium) for 48 hours […].

[3] = biological target: T2, MHP55-2 meganuclease (engineered I-CreI); assay: cell_activity; maize embryos; settings: tags: SV40 NLS
T2 chain: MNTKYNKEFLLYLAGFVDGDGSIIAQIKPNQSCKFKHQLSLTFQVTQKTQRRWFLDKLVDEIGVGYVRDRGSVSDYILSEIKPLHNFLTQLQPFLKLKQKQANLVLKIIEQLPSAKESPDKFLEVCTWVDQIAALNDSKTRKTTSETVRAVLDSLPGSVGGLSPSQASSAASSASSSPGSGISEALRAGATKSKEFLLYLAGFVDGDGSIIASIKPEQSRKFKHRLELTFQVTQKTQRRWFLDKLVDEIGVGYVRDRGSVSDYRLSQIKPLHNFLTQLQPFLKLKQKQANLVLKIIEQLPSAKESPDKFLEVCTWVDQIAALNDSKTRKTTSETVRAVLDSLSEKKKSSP
Procedure: as §1

[4] = biological target: T3, MHP14+ meganuclease (engineered I-CreI); assay: cell_activity; maize embryos; settings: tags: SV40 NLS
T3 chain: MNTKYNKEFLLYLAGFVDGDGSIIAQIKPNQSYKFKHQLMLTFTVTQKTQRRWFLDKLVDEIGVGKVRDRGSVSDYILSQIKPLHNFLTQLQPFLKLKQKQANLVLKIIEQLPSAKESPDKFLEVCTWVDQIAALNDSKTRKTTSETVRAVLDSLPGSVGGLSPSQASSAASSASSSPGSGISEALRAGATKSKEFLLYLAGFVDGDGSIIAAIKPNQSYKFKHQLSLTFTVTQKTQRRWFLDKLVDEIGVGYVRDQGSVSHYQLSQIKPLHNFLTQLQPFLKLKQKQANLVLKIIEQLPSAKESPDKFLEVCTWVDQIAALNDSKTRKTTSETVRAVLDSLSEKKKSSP
Procedure: as §1

## GGGCGGTATGTATGTCATACTA (double strand) [MHP77 target]
[1]
  activity (% target site mutation): 11

B1: MHP77 target (dsDNA)
DNA 1: GGGCGGTATGTATGTCATACTA
DNA 2: TAGTATGACATACATACCGCCC
[2]
  activity: 1 % target site mutation

B2: MHP55 target (dsDNA)
DNA 1: CCAACCGTCGTGAGACCTGCCC
DNA 2: GGGCAGGTCTCACGACGGTTGG
[3]
  activity: 5 % target site mutation

B3: MHP14 target (dsDNA)
DNA 1: CAAACAGATTCACGTCAGATTT
DNA 2: AAATCTGACGTGAATCTGTTTG
[4]
  activity: 40 % target site mutation
